The results in this text go back to patent publication US12544428B2, “Controlled-release CNP agonists with reduced side-effects” (ASCENDIS PHARMA GROWTH DISORDERS A/S, priority 2016, dated 2026).

For data set [1] the following is noted: 0.146 mg CNP-38 eq/kg. The protocol:
(§1) Plasma total CNP-38 concentrations (conjugated and released CNP-38) were determined by quantification of the N-terminal signature peptide (sequence: […]) and C-terminal signature peptide (sequence: […]) after tryptic digestion.
(§2) LC-MS analysis was carried out by using an Agilent 1290 UPLC coupled to an Agilent 6550 iFunnel Q-TOF mass spectrometer via an ESI probe. Chromatography was performed on a Waters Acquity BEH300 C18 analytical column (50×2.1 mm I.D., 1.7 μm particle size) with pre-filter at a flow rate of 0.25 mL/min (T=25° C.). Water (UPLC grade) containing 0.2% formic acid (v/v) was used as mobile phase A and acetonitrile (UPLC grade) with 0.2% formic acid as mobile phase B. The gradient system comprised a short isocratic step at the initial parameters of 0.1% B for 3.0 min followed by a linear increase from 0.1% B to 16% B in 17 min. Mass analysis was performed in the single ion monitoring (SIM) mode, monitoring the ions m/z 482.75 [M+2H]^2+ (N-terminal) and m/z 824.36 [M+H]^1+ (C-terminal). As internal standard deuterated CNP-38 peptide was used.
(§3) Calibration standards of CNP-38 conjugate in blank plasma were prepared as follows: The thawed Li-heparin cynomolgous plasma was first homogenized, then centrifuged for 5 minutes. […] These solutions were used for the generation of a calibration curve.
(§4) For sample preparation, protein precipitation was carried out by addition of 300 μL of pre-cooled (0° C.) methanol to 100 μL of the plasma sample. 200 μL of the supernatant were transferred into a new well-plate and evaporated to dryness (under a gentle nitrogen stream at 35° C.). 100 μL of reconstitution solvent (Thermo digestion buffer, order number 60109-101, Thermo Fisher Scientific GmbH, Dreieich, Germany) were used to dissolve the residue. 20 μg of trypsin (order number V5111, Promega GmbH, Mannheim, Germany) were dissolved in 20 μL of 10 mM acetic acid. 2 μL of the trypsin solution were added to each cavity.
(§5) After 4 hours incubation at 37° C. (water bath), 5 μL of a 0.5 M TCEP solution were added to each cavity and incubated again for 5 min at 96° C. After the samples had cooled to room temperature, 3 μL acetonitrile were added. The eluates were transferred into vials. 10 μL were injected into the UPLC-MS system.
Blood samples were collected up to 168 h post dose, and plasma was generated. Plasma total CNP-38 concentrations were determined by quantification of the N-terminal signature peptide (sequence: […]) and C-terminal signature peptide (sequence: […]) after tryptic digestion as described in Materials and Methods.

The conditions of data set [2]: 0.146 mg CNP-38 eq/kg. The protocol:
as §1, §2, §3, §4, §5
Male cynomolgus monkeys (2-4 years old, 3-5 kg) received either a single subcutaneous administration (n=3 animals) of compound 10f or a single subcutaneous (n=3 animals) administration of 11i at a dose of 0.146 mg CNP-38 eq/kg. Blood samples were collected up to 168 h post dose, and plasma was generated. Plasma levels of total CNP-38 content were analyzed as described in example 24. In order to analyze the plasma content of free CNP-38, the blood samples were acidified after withdrawal by adding 20 vol % of 0.5 M sodium citrate buffer pH 4 to stop further CNP-38 release from the conjugate. Free CNP-38 levels in plasma can e.g. be determined by ELISA using a CNP antibody that binds to the ring region of CNP, as described in the literature (U.S. Pat. No. 8,377,884 B2), or by LC-MS/MS.
This is another data set of the same source.

Where two headings read alike, the source gives them in different places.

In the case of “Permanent Lys26 CNP-38 PEG4×10 kDa Conjugate [Compound 12g]”, in data set [1] (single intravenous injection, plasma total CNP-38), the “half life time of CNP-38 content” value was “approx. 24 h”. Further, the CNP-38 tmax in data set [1] (single intravenous injection, plasma total CNP-38, earliest time point analyzed) is 0.25 h. Also, in data set [1] (single iv or sc dose), the dose site reactions entry is “No dose site reactions were observed” and the “tolerability of dose administrations” value is recorded as “well tolerated”. The “CNP-38 concentration at 168 h” value in data set [1] (single subcutaneous injection) is listed as “ca. 50 % of cmax”. This substance also registered a CNP-38 tmax in data set [1] (single subcutaneous injection, plasma total CNP-38) of 48 h. In data set [1] (subcutaneous vs intravenous), the bioavailability result is “ca. 50%”.

In the case of “Reversible Lys26 CNP-38 PEG2×20 kDa Conjugate [Compound 10f]”, in data set [2] (single sc), the dose site reactions entry is given as “No dose site reactions were observed” and the “tolerability of dose administrations” value is given as “well tolerated”. Also, the “Total CNP-38 plasma levels after 120 h” value in data set [2] (single sc, C-terminal peptide, below LOQ) is given as under 100 ng/mL. Further, the “total CNP-38 tmax” value in data set [2] (single subcutaneous administration) stood at 12 h.
